Consider one substance from patent US20230113734A1.

The test addresses SARS-CoV-2 S protein (spike protein) (SARS-CoV-2) (UniProt P0DTC2). Briefly: ELISA, S proteins on plate (the reference itself). (In general: An ELISA detects its analyte on a solid surface through an enzyme-linked reagent.)

As for positive control antibody (CR3022), the Binding ability (relative to positive control antibody) is 1.
